Results reported in patent US8541367B2, “Plasma anti-diabetic NUCB2 peptide (pladin) and uses thereof” (Landing Biotech, Inc., priority 2009, dated 2013).
Several values for one entry are separate records, joined by “and”; a condition that tells them apart may be missing. Identical values can stand only once. Entries after “also recorded” stand apart in the source; their conditions may differ.

Assays:
[1] = tested on: db/db mice; assay: Food intake and body weight of db/db mice; format: in vivo, mouse
[2] = tested on: db/db mice; assay: Serum nesfatin-1 / pladin in db/db after i.v. plasmin inhibitor (HPLC); format: in vivo, mouse
Experimental: Hypothalamus in acetic acid supplemented with protease inhibitor cocktail tablets (Roche, Indianapolis, Ind.) was homogenized, sonicated and heated at 95° C. for 15 minutes. The samples were then centrifuged at 13,200 rpm at 4° C. for 30 minutes. The supernatants were finally collected as their protein contents were determined by the Bradford assay (Thermo-Fisher Sci. Rockford, Ill.). Mouse serum was freshly prepared by drawing blood through ophthalmectomy. About […] hypothalamic total proteins or 25 μL serum were analyzed with Waters Delta 600E/2487/717 HPLC system using an analytical C18 reverse phase column (4.6×250 mm/5 μm, Hambon, Zhangjiagang, CN). Nesfatin-1 was eluted with a linear gradient from 20%-40% solvent B (solvent A: water with 0.1% trifluoroacetic acid, solvent B: acetonitrile with 0.1% trifluoroacetic acid) for 20 minutes at the flow rate of 1 ml/minute. The purified nesfatin-1 was used as the standard to determine the retention time and plot the standard curve. The fraction collected at the retention time was sent for the mass spectrometry analysis.
Mouse serum was freshly prepared by drawing blood through ophthalmectomy. The sera of plg^−/−lepr^−/− and db/db mice were directly analyzed with Waters Delta 600E/2487/717 HPLC System using a C18 reverse phase column (4.6×250 mm, 5 μm, Hambon, Zhangjiagang, CN) and eluted with a linear gradient from 20%-40% acetonitrile in 0.1% TFA for 20 minutes at the flow rate of 1 ml/minute (Enriori et al., 2007). Compared with db/db mice, the divergent fractions eluted in plg^−/−lepr^−/− mice were collected for the determination of molecular weight using the Applied Biosystems 4800 Proteomics Analyzer (Applied Biosystems). The MS spectra were acquired in the liner mode at a range of peptide mass from 3,000 to 20,000 Dalton.

[3] = tested on: post-surgical patients; assay: AMCA treatment of post-surgical hyperglycemia in patients; format: in vivo, human; details: 10 mg/kg i.v. BID, four post-surgical patients, blood glucose before 10-12 mmol/L
[4] = tested on: db/db mice; assay: Blood glucose of db/db mice after injection of test substance; format: in vivo, mouse; details: for active duration of anti-hyperglycemic effect in vivo: i.v. injection, hyperglycemic db/db mice; for anti-hyperglycemic effect (blood glucose): peripheral/i.v. injection, dose not stated
[5] = tested on: rats; details: injected directly into the brain of rats; cited from earlier work
[6] = molecular target: plasmin (Homo sapiens, UniProt P00747); assay: Incubation with plasmin in vitro (proteolysis); format: biochemical; details: for proteolysis by plasmin: incubated with plasmin in vitro
Sequence of plasmin (P00747 581-810 limits assumed, species assumed): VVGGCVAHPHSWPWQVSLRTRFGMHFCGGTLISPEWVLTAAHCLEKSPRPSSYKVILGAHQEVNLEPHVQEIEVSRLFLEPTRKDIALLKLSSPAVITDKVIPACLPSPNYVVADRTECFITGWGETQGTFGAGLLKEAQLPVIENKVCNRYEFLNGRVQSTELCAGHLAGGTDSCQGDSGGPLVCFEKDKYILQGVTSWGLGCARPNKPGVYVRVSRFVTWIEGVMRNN
Sequence of plasmin (P00747 97-580 partner limits assumed, species assumed): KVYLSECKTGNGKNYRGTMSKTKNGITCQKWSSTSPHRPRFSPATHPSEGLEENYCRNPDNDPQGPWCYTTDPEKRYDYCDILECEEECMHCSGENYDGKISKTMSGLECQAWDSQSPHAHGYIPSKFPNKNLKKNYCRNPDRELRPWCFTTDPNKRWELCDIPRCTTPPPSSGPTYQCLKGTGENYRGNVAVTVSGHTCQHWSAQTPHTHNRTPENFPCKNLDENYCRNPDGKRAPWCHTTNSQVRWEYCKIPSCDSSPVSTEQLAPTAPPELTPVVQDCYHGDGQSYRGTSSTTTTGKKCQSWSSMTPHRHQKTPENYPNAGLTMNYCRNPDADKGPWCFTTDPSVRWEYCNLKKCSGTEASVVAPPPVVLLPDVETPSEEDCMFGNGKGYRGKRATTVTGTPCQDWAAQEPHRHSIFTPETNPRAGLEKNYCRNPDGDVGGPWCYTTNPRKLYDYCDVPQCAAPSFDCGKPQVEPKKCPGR
Text: The recovery of hypothalamic nesfatin-1 in plg^−/−lepr^−/− was consistent to its normalization in food intake and body weight. Fasted mice always had less nesfatin-1 in hypothalamus than their freely feeding counterparties (FIG. 2b). Furthermore, plasminogen deficiency provided a unique approach to study the chronic effect of elevated nesfatin-1 in hyperphagic obese animals, which was impossible for the i.c.v. or i.p. administration due to the short half-time of nesfatin-1. Consequently, agrp and npy were found reduced in plg^−/−lepr^−/−, while pomc was elevated compared with plg^+/+lepr^−/− (FIG. 3), contradicting to the previous report that i.c.v. nesfatin-1 didn't alter the expression of pomc, npy and agrp. Consistent to the present finding, the same group reported the up-regulation of pomc by i.p. nesfatin-1 in NTS recently.
Carefully examining the amino acid sequence of pladin (SEQ ID NO: 23), it has several putative cleavage sites by plasmin (FIG. 11A).

[7] = tested on: wild-type mice; assay: Intravenous glucose tolerance test (IV-GTT / IGTT) in wild-type mice; format: in vivo, mouse; details: i.v. glucose 1.5 g/kg
Experimental: In the intravenous (i.v.) glucose tolerance test (IV-GTT), mice injected intravenously with 1 mg or 1.5 mg glucose per gram of body weight and placed in clean cages. Blood glucose was measured immediately before and at 5, 10, 20, 30, 60 and 120 minutes after the injection of glucose.

[8] = tested on: Streptozotocin-induced type-1 diabetic C57BL/6J mice; assay: Streptozotocin-induced type-1 diabetic mice, blood glucose; format: in vivo, mouse
Experimental: Male C57BL/6J mice (10 weeks) were given intraperitoneal injections of Streptozotocin (STZ) in sodium citrate (pH 4.5) on two consecutive days (100 mg/kg/day). Blood glucose was measured by tail vein sampling using the glucose oxidase enzymatic test. Diabetes was defined as a morning blood glucose reading of >16 mM after STZ. When blood glucose levels exceeded 30 mM, diabetic mice were given 16 ng of porcine insulin (Wangbang, Xuzhou, CN) immediately to prevent the blood glucose being dangerous every second day to prevent weight loss while maintaining blood glucose levels within the hyperglycemic range (16-30 mM). Nesfatin-1 (100 μg/mouse) was i.v. injected either alone or combined with s.c. insulin (2 ng/mouse) to STZ-induced type-I diabetic mice.
Male C57BL/6J mice (10 weeks) were intraperitoneally injected with 100 μg/g/day STZ in 100 mmol/L sodium citrate (pH 4.5) on two consecutive days. Blood glucose was measured by tail vein sampling using the glucose oxidase enzymatic test. When the fasting blood glucose reading was over 16 mmol/L after the STZ injection, the mice were considered to be type-1 diabetic. […]

[9] = Clearance and half-life of i.v. peptide in circulation; format: in vivo, mouse; details: for clearance from circulation in plg−/− versus wild-type (plg+/+) mice: i.v. injection
[10] = tested on: ob/ob mice; assay: Blood lipid analysis in ob/ob mice after i.v. injection; format: in vivo, mouse; details: 100 ug i.v., 3 hours after injection
Experimental: One hundred ug Nesfatin-1 was injected into the tail vein of ob/ob mice. Blood samples were taken 3 hours after the injection for lipid analysis.

[11] = in circulation, Pan et al., 2007, Price et al.; cited from earlier work
[12] = i.c.v. or i.p. injection; cited from earlier work
[13] = tested on: rats; details: cited from earlier work
[14] = blood-to-brain and brain-to-blood, nonsaturable system; cited from earlier work
[15] = tested on: lean wild-type mice; assay: Blood glucose of lean wild-type mice after i.v. injection; format: in vivo, mouse; details: 10 nmol i.v.
Experimental: Without anesthesia, mice were placed into a restricting tube. The testing substance such as nesfatin-1 or rPladin was i.v. injected via mice tail vein with a total volume of 150 μL. After that mice were returned to the cages with food and water available freely. In the i.p. injection experiment, mice without anesthesia were injected with the testing substances directly into the peritoneal with a total volume of 200 μL.

[16] = tested on: rat; assay: 0-3 h food intake of rat after i.p. and i.c.v. injection; format: in vivo; details: for food intake: 0-3 h
[17] = tested on: mice including db/db; assay: Blood insulin in mice after rPladin; format: in vivo, mouse
[18] = i.v. plasmin inhibitor to db/db (AMCA 15 mg/day once daily for three days)
[19] = i.c.v. injection (25 pmol), db/db

With `NC[C@H]1CC[C@H](C(=O)O)CC1` [AMCA, tranexamic acid] the body weight [1, 18] was “reduction”, the food intake [1, 18] was “reduction” and the serum pladin ([2]; 10 minutes after i.v. 15 mg) was “increased”. The “circulating (serum) nesfatin-1” value ([2]; 30 minutes after i.v. injection) was “increased”, the “blood glucose after treatment” value [3] was 6.8 to 9.2 mmol/L and the fasting blood glucose ([4]; once-daily administration for 10 weeks since 2 weeks old, db/db) was “reduced significantly”.

B1: NUCB2: hypothalamus-secreted protein containing 396 amino acids (protein, UniProt P80303 25-420, looked up)
Nucleobindin-2: VPIDIDKTKVQNIHPVESAKIEPPDTGLYYDEYLKQVIDVLETDKHFREKLQKADIEEIKSGRLSKELDLVSHHVRTKLDELKRQEVGRLRMLIKAKLDSLQDIGMDHQALLKQFDHLNHLNPDKFESTDLDMLIKAATSDLEHYDKTRHEEFKKYEMMKEHERREYLKTLNEEKRKEEESKFEEMKKKHENHPKVNHPGSKDQLKEVWEETDGLDPNDFDPKTFFKLHDVNSDGFLDEQELEALFTKELEKVYDPKNEEDDMVEMEEERLRMREHVMNEVDTNKDRLVTLEEFLKATEKKEFLEPDSWETLDQQQFFTEEELKEYENIIALQENELKKKADELQKQKEELQRQHDQLEAQKLEYHQVIQQMEQKKLQQGIPPSGPAGELKFEPHI
For B1, the “anorexia and body weight” value [5] is given as “promotes anorexia and decreases body weight”.

B2: nesfatin-1: 82 amino-acid fragment of nucb2 (mouse, SEQ ID NO: 18), recombinant, produced in E. coli (protein)
peptide: VPIDVDKTKVHNTEPVENARIEPPDTGLYYDEYLKQVIEVLETDPHFREKLQKADIEEIRSGRLSQELDLVSHKVRTRLDEL
With B2 the “time to complete digestion by plasmin” value ([6]; in vitro, FIG. 1b) was at most 2 h, the proteolysis by plasmin [6] was “rapidly degraded” and the “uptake of blood sugar” value ([7]; 100 μg) was “significantly enhanced the uptake of blood sugar”. The blood glucose ([8]; 100 μg/mouse i.v. alone or with s.c. insulin 2 ng/mouse) was “decreased only when nesfatin-1 was injected with s.c. insulin”, the food intake ([1]; 25 pmol i.c.v., db/db mice) was “significantly inhibited food intake” and the “clearance from circulation in plg−/− versus wild-type (plg+/+) mice” value [9] was “cleared much slower in plg^−/− than plg^+/+ mice”. The HDL in blood [10] was “unaffected”, the LDL in blood [10] was “significantly reduced” and the “total cholesterol in blood” value [10] was “significantly reduced”. The triglyceride in blood [10] was “significantly reduced”, the blood glucose ([4]; 10 nmol i.v., freely fed db/db) was “reduced blood glucose” and the blood glucose ([4]; 100 μg i.v., freely fed db/db) was “significantly reduced blood glucose”. For the same molecule, the blood glucose [4, 19] was “had no effect on the high levels of blood glucose; also recorded: little diabetic improvement”, the “active duration of anti-hyperglycemic effect in vivo” value [4] was over 6 h and the “anti-hyperglycemic effect (blood glucose)” value ([4]; db/db) was “significantly reduced blood glucose”. For the same molecule, the “half-life of nesfatin-1” value [11] was 9 to 10 min and 10 min, the “food intake and body weight” value [12] was “inhibits food intake and thereby reduces body weight” and the neuropsychological effect [13] was “increasing anxiety and fear-related behaviors”. The “crossing of the blood-brain barrier” value [14] was “crosses the Blood Brain Barrier”.

B3: TKVHNTEPVENARIEPPDTGLYYDEYLKQVIEVLETDPHFREK LQKADIEEIRSGRLSQELDLVSHKVR (protein)
chain: TKVHNTEPVENARIEPPDTGLYYDEYLKQVIEVLETDPHFREKLQKADIEEIRSGRLSQELDLVSHKVR
modifications: amino acids by MALDI-TOF/TOF with Trypsic Peptides
In the case of B3, the proteolysis by plasmin [6] is reported as “rapidly degraded; also recorded: completely digested by plasmin”, the blood glucose [15] is reported as “but not in lean wild-type” and the “uptake of blood sugar” value ([7]; 10 nmol) is reported as “significantly enhanced the uptake of blood sugar”. The blood glucose ([8]; 10 nmol per mouse i.v. alone or with s.c. insulin 2 ng/mouse) was “lowered by rPladin only when insulin was also subcutaneously injected”, the food intake ([16]; 25 pmol i.c.v. per rat) was “significantly inhibited food intake” and the food intake ([16]; 30 nmol i.p. per rat) was “significantly inhibited food intake”. For the same molecule, the “inhibition of food intake relative to nesfatin-1” value ([16]; i.v., i.p. and i.c.v. administration) was “As potent as nesfatin-1; also recorded: same extent of inhibition in food intake as nesfatin-1”, the food intake ([1]; 25 pmol i.c.v., db/db mice) was “significantly inhibited food intake” and the half-life in circulation ([9]; data not shown) was “less than 10 minutes”. For the same molecule, the “clearance from circulation in plg−/− versus wild-type (plg+/+) mice” value [9] was “cleared much slower in plg^−/− than wild-type mice”, the insulin ([17]; i.c.v. injection, db/db mice) was “could not affect blood glucose and insulin” and the blood insulin ([17]; i.v. administration, mice including db/db) was “did not significantly affect”. For the same molecule, the blood glucose ([4]; 10 nmol i.v., freely fed db/db) was “significantly reduced blood glucose”, the blood glucose [4, 19] was “had no effect on the high levels of blood glucose; also recorded: could not affect blood glucose and insulin” and the “active duration of anti-hyperglycemic effect in vivo” value [4] was 6 h and > 6 h. For the same molecule, the “anti-hyperglycemic effect (blood glucose)” value ([4]; db/db) was “significantly reduced blood glucose” and the “anti-hyperglycemic effect after incubation with plasmin” value ([4]; plasmin digested rPladin, db/db (FIG. 11C)) was “lost”.
